Results on 2 molecules are retold here after publication PMC11897130 (Nature Communications, 2025).

The target in data set [1] is human GLT25D1/ColGalT1 (procollagen galactosyltransferase 1), amino acids 30-622, wild type (human) (UniProt Q8NBJ5). The data set is described as follows: cryo-EM structure.
The data set “cryo-EM structure” concerns the molecule itself. The data set is described as follows: cryo-EM structure.

In turn, “human GLT25D1/ColGalT1 (procollagen galactosyltransferase 1), amino acids 30-622, wild type (from UniProt Q8NBJ5 30-622) (enzyme)” gave a stoichiometry N in data set [1] of 2.

B1: human LH3/PLOD3 (multifunctional procollagen lysine hydroxylase and glycosyltransferase LH3), wild type (enzyme)
chain: SDRPRGRDPVNPEKLLVITVATAETEGYLRFLRSAEFFNYTVRTLGLGEEWRGGDVARTVGGGQKVRWLKKEMEKYADREDMIIMFVDSYDVILAGSPTELLKKFVQSGSRLLFSAESFCWPEWGLAEQYPEVGTGKRFLNSGGFIGFATTIHQIVRQWKYKDDDDDQLFYTRLYLDPGLREKLSLNLDHKSRIFQNLNGALDEVVLKFDRNRVRIRNVAYDTLPIVVHGNGPTKLQLNYLGNYVPNGWTPEGGCGFCNQDRRTLPGGQPPPRVFLAVFVEQPTPFLPRFLQRLLLLDYPPDRVTLFLHNNEVFHEPHIADSWPQLQDHFSAVKLVGPEEALSPGEARDMAMDLCRQDPECEFYFSLDADAVLTNLQTLRILIEENRKVIAPMLSRHGKLWSNFWGALSPDEYYARSEDYVELVQRKRVGVWNVPYISQAYVIRGDTLRMELPQRDVFSGSDTDPDMAFCKSFRDKGIFLHLSNQHEFGRLLATSRYDTEHLHPDLWQIFDNPVDWKEQYIHENYSRALEGEGIVEQPCPDVYWFPLLSEQMCDELVAEMEHYGQWSGGRHEDSRLAGGYENVPTVDIHMKQVGYEDQWLQLLRTYVGPMTESLFPGYHTKARAVMNFVVRYRPDEQPSLRPHHDSSTFTLNVALNHKGLDYEGGGCRFLRYDCVISSPRKGWALLHPGRLTHYHEGLPTTWGTRYIMVSFVDP
modifications: N-linked glycans at N63 and N548 (seen in the cryo-EM map)
Turning to B1, the “stoichiometry N” value in “cryo-EM structure” amounted to 2.
